Source: PMC10303457 (2023)
No end group written: not given here.

T1: Human IMPα3 aa 64–521 (lacking the IMPβ binding domain) (human, UniProt O00629 64-521)
T1 chain: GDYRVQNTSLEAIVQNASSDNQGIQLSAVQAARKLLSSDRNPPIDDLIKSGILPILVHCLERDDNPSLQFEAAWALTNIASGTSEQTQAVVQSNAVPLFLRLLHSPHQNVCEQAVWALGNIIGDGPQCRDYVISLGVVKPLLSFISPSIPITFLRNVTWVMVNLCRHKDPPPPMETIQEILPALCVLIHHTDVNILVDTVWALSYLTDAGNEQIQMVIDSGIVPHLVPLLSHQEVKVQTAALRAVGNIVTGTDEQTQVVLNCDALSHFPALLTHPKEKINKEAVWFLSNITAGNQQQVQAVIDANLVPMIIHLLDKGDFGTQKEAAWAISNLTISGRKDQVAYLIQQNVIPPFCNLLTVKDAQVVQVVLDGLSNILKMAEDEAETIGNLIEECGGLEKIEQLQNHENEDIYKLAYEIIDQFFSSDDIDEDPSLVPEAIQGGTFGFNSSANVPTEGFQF


What was measured:
Test in all cases: FP
[1] = target: T1, Human IMPα3 aa 64–521 (lacking the IMPβ …)
[2] = target: Human IMPα1 aa 71–529 (lacking the IMPβ binding domain) (human, UniProt P52292 71-529)
[3] = target: Human IMPα5 aa 74–538 (lacking the IMPβ binding domain) (human, UniProt P52294 74-538)
Chain of Human IMPα5 aa 74–538 (lacking the IMPβ binding domain) (P52294 74-538): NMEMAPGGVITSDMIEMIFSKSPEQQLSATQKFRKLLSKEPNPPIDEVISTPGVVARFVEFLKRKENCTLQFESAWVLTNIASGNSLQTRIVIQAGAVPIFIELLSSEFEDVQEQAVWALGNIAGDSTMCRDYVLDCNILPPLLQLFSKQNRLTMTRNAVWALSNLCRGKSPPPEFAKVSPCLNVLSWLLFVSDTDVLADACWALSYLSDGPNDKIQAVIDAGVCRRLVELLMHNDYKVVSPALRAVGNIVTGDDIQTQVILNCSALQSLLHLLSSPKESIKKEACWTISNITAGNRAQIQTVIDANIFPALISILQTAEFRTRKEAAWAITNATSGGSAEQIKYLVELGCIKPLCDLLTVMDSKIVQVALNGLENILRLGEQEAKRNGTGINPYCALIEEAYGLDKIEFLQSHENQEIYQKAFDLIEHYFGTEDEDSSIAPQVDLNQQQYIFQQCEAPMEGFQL

Binder | Kd [1] [nM] | Kd [2] [nM] | Kd [3] [nM]
VRRAGKYYSVEYCKRKID (also: FITC-labelled, site not given here) [FITC-labelled HeV M NLS2 peptide] | 11500 |  | 
SGKRKKIRTIAAYPLGVGKS (also: FITC-labelled, site not given here) [FITC-labelled HeV M NLS1 peptide] | 2470 | 560 | 1470
